Laboratory results: patent publication US10562935B2, “Stapled peptides and uses thereof” (London Health Sciences Centre Research Inc., priority 2015, dated 2020)
Bridges are numbered along the chain shown (N, C = ends).

B1: 7 kDa RHAMM: mini protein of 62 amino acids derived from the C-terminus of full-length RHAMM, contains both HABDs; reference for α-helical character (protein, listed as Mus musculus)
chain: RDSYAQLLGHQNLKQKIKHVVKLKDENSQLKSEVSKLRSQLVKRKQNELRLQGELDKALGIR

Columns and labels:
[1] = Direct HA-binding ELISA of biotinylated peptides on HA coated plates (Example 4); design: key to HA binding: absorbance (color) read at 450 nm; details: for HA binding: as repeated in tables 16, 18, 20; for HA direct binding (OD): optical density, summary tables 15, 17, 19
Protocol: Each of these peptides was biotinylated at its amino-terminus, and an AEEA spacer was included to separate the peptide sequence from the biotin molecule.
HA coated plates were purchased (ECHELON). Peptides were dissolved in 2 mM PBS to constant molarity, aliquoted and stored at −20° C. until used in assays. 7 kDa biotin-labeled RHAMM (SEQ ID NO: 1) was synthesized and used as a positive control in these assays. Biotin labeled peptides were added to the HA coated wells (n=3 replicates/peptide) at either 0.8 or 0.08 μM and then incubated with shaking overnight at 4° C. Wells were washed free of excess unbound peptides using 200 μl PBS (4 times). 100 μl of Streptavidin-HRP was then added to each well and the plate was incubated at room temperature for 1 hr. The plate was then washed with 200 μl PBS/well 4 times and TMB Liquid Substrate System for ELISA (Sigma) was added to each well, incubated for 5-10 min at room temperature and color read at 450 nm Plate Reader (BioTek, SYNERGY H4, Hybrid Reader).
Direct HA-binding results for the biotinylated equivalents of compounds 132 and 150-161 are show in FIG. 39, and results for compounds 265-268 and 275-278 are shown in FIG. 40.

[2] = Circular dichroism (CD) spectroscopy of linear and stapled peptides in water or 40% TFE/water (Example 3); type: physicochemical; details: for [0]208 mean residue ellipticity: λ = 208 nm; for [0]222 mean residue ellipticity: λ = 222 nm
Protocol: CD spectra were obtained on a Jasco J-810 spectropolarimeter and recorded in the range of 180-260 nm. Peptide solutions were prepared with a 0.1M phosphate buffer solution to a concentration of 0.5 mM. The measurements were performed in quartz cuvettes with a path length of 1 mm and a scanning speed of 10-50 nm/min. Five individual data points were averaged by the instrument in order to obtain the reported CD spectrum. The measurements were carried out at 20° C. A blank solution of 0.1M phosphate buffer solution was run before every measurement in order to baseline correct for any UV-interference observed from the buffer.
CD data for the 14- and 15-mer peptides containing HABD2 (VSKLRSQLVKRKQN, SEQ ID NO: 2) and HABD1 (NLKQKIKHVVKLKDE, SEQ ID NO: 4) and cyclized derivatives thereof in water or 40% TFE/water are provided below in Tables 8 (water) and 9 (40% TFE/water). Tables 8 and 9 provide the mean residue ellipicity ([θ] deg cm^2 dmol^−1) at λ=222 and 208 nm for each peptide and ratios of ellipticities at 222/208. Each of the peptides was acetylated at its amino terminus and amidated at its carboxy terminus.
CD data for linear peptides having the sequences […] (SEQ ID NO: 5) and […] (SEQ ID NO: 6) and cyclized derivatives thereof in water or 40% TFE/water are provided below in Tables 12 (water) and 13 (40% TFE/water). Tables 12 and 13 provide the mean residue ellipicity ([0] deg cm^2 dmol^−1) at λ=222 and 208 nm for each peptide and ratios of ellipticities at 222/208. Each of the peptides was acetylated at its amino terminus and amidated at its carboxy terminus.
Circular Dichroism (CD) spectroscopy is a tool that is used to study the secondary structure characteristics of a compound. Peptides and proteins can fold into organized structures, such as alpha helices and beta sheets, which are the result of complex hydrogen bonding and other interactions between amino acid side chains, as well as adopt a random coil formation, which lacks much of the organization of the other two structures. The CD spectrum of an alpha helix is characterized by two local minima at 208 nm and 222 nm. The ratio of the values of the molar ellipticities at these wavelengths ([θ]222/[θ]208) is a strong indication of the relative helicity of a compound; a compound is more helical when the ratio of these two values approaches 1.0. Synthetic constraints introduced to the peptide backbone can force a peptide chain to increase its helical character. These constraints can be introduced by staples, of varying types, which allow cyclization of the peptide backbone to take place.

[3] = Circular dichroism (CD) spectroscopy of HABD2 peptides in Milli-Q water (Example 1); type: physicochemical; details: for [θ]222/[θ]208 ratio of ellipticities / fH fraction helicity / Molar ellipticity [θ]192 / Molar ellipticity [θ]208 / Molar ellipticity [θ]222: 0.5 mM in Milli-Q water; for fH fraction helicity: equations 1-3; for α-helical character by CD (in words): Milli-Q water; for Molar ellipticity [θ]192: λ = 192 nm; for Molar ellipticity [θ]208: λ = 208 nm; for Molar ellipticity [θ]222: λ = 222 nm
Excerpt: In addition, a large mean residue ellipticity indicates greater α-helical character. […] This was predicted to be the case, as there is a lack of contributing residues that might form a hydrophobic core, thereby helping to stabilize the secondary structure of the linear peptide. For this reason, bridges were introduced into the peptides. […] The differences in α-helicity induced by the bridges placed at different points within each peptide may be due to the differences in their primary sequences. Specifically, two amino acids (at the i and i+4 position) have to be replaced in order to form the lactam bridge. In compound 133, leucine was replaced at both the i and i+4 position; while in compound 136, glutamine was replaced at the i position and aspartic acid was replaced at i+4. Leucine and glutamine are proposed to be helix-stabilizing residues.
A larger portion of the RHAMM protein was used as the reference for α-helical character of the truncated peptides. 7 kDa RHAMM (SEQ ID NO: 1) is a mini protein that is composed of 62 amino acids, which was derived from the C-terminus of the full-length RHAMM sequence. It contains both HABDs, and is predicted to have almost complete α-helix shape, similar to that of native full-length RHAMM.
A peptide's α-helicity can be quantified using equations 1-3: fH=[([θ]obs222−[θ]c)/([θ]max222−[θ]c)] (Equation 1) [θ]c=2220+53T (Equation 2) [θ]max222=(−44000+250T)(1−k/N) (Equation 3) where fH is the ratio of the average number of helical hydrogen bonds divided by the total number of hydrogen bonds that can be found in a peptide, T is the temperature in degrees Celsius, N is the number of residues in the peptide and k is a constant of ellipticity when 100% of the structure is α-helical (3 for carboxyamidated peptides).
Milli-Q water was chosen as the solvent in which all peptides would be dissolved for CD spectroscopy, as it is a UV invisible solvent, which is a requirement of the analytical technique, and it represents RHAMM's natural environment in the body. Luo and Baldwin [18] stated that when peptides are taken out of their native protein sequence, they usually show little to no helical formation in water alone. For this reason, TFE/H2O solutions are commonly used in studies to observe the α-helix characteristics, and may improve the helical nature of the peptides observed here. However, a helix-stabilizing solvent, such as TFE, would not be as contextually relevant, as there are no solvent stabilizing effects in the body. Thus use of TFE would tend to produce skewed results and not be representative of the peptide's natural behavior.

[4] = [θ]222/[θ]208 ratio in water, summary tables 15, 17, 19
[5] = as repeated in tables 16, 18, 20

Molecule | HA binding [1] | HA direct binding (OD) [1] [OD] | [θ]222/[θ]208 ratio of ellipticities [2, 4] | [θ]222/[θ]208 ratio of ellipticities [2, 5] | [0]222/[0]208 ratio of ellipticities ([2]; in 40% TFE/water) | [0]222/[0]208 ratio of ellipticities ([2]; in water) | [0]208 mean residue ellipticity ([2]; in 40% TFE/water) [deg cm^2 dmol^−1] | [0]208 mean residue ellipticity ([2]; in water) | [0]222 mean residue ellipticity ([2]; in 40% TFE/water) [deg cm^2 dmol^−1] | [0]222 mean residue ellipticity ([2]; in water) [deg cm^2 dmol^−1] | [θ]222/[θ]208 ratio of ellipticities [3] | fH fraction helicity [3] | α-helical character by CD (in words) [3] | Molar ellipticity [θ]192 [3] | Molar ellipticity [θ]208 [3] | Molar ellipticity [θ]222 [3]
Ac-(cyclo-5,9)-VSKL[KSQLE]KRKQN-NH2 (Ac-VSKLKSQLEKRKQN-NH2; lactam 5-9; SMILES CC(=O)N[C@H](C(=O)N[C@@H](CO)C(=O)N[C@@H](CCCCN)C(=O)N[C@@H](CC(C)C)C(=O)N[C@H]1CCCCNC(=O)CC[C@@H](C(=O)N[C@@H](CCCCN)C(=O)N[C@@H](CCCNC(=N)N)C(=O)N[C@@H](CCCCN)C(=O)N[C@@H](CCC(N)=O)C(=O)N[C@@H](CC(N)=O)C(N)=O)NC(=O)[C@H](CC(C)C)NC(=O)[C@H](CCC(N)=O)NC(=O)[C@H](CO)NC1=O)C(C)C) [Compound 154] | 0.045 | 0.045 | 0.20 | 0.20 | 0.75 | 0.20 | -1.18E+04 | -4,95E+03 deg cm^2 dmol^−1 | -8.78E+03 | -9.74E+02 | – | – | – | – | – | –
Ac-(cyclo-6,10)-VSKLR[KQLVE]RKQN-NH2 (Ac-VSKLRKQLVERKQN-NH2; lactam 6-10; SMILES CC(=O)N[C@H](C(=O)N[C@@H](CO)C(=O)N[C@@H](CCCCN)C(=O)N[C@@H](CC(C)C)C(=O)N[C@@H](CCCNC(=N)N)C(=O)N[C@H]1CCCCNC(=O)CC[C@@H](C(=O)N[C@@H](CCCNC(=N)N)C(=O)N[C@@H](CCCCN)C(=O)N[C@@H](CCC(N)=O)C(=O)N[C@@H](CC(N)=O)C(N)=O)NC(=O)[C@H](C(C)C)NC(=O)[C@H](CC(C)C)NC(=O)[C@H](CCC(N)=O)NC1=O)C(C)C) [Compound 155] | 0.05 | 0.05 | 0.37 | 0.37 | 0.75 | 0.37 | -1.71E+04 | -5.30E+03 deg cm^2 dmol^−1 | -1.28E+04 | – | – | – | – | – | – | –
H-(cyclo-5,9)-VSKL[ESQLK]KRKQN-NH2 (H-VSKLESQLKKRKQN-NH2; lactam 5-9; SMILES CC(C)C[C@@H]1NC(=O)[C@H](CCC(N)=O)NC(=O)[C@H](CO)NC(=O)[C@@H](NC(=O)[C@H](CC(C)C)NC(=O)[C@H](CCCCN)NC(=O)[C@H](CO)NC(=O)[C@@H](N)C(C)C)CCC(=O)NCCCC[C@@H](C(=O)N[C@@H](CCCCN)C(=O)N[C@@H](CCCNC(=N)N)C(=O)N[C@@H](CCCCN)C(=O)N[C@@H](CCC(N)=O)C(=O)N[C@@H](CC(N)=O)C(N)=O)NC1=O) [Compound 134] | – | – | – | – | – | – | – | – | – | – | 0.57 | 0.22 | increase in α-helix structure | 1002.14 deg cm^2 dmol^−1 residue^−1 | −7685.97 deg cm^2 dmol^−1 residue^−1 | −4403.89 deg cm^2 dmol^−1 residue^−1
H-(cyclo-7,11)-VSKLRS[ELVKK]KQN-NH2 (H-VSKLRSELVKKKQN-NH2; lactam 7-11; SMILES CC(C)C[C@H](NC(=O)[C@H](CCCCN)NC(=O)[C@H](CO)NC(=O)[C@@H](N)C(C)C)C(=O)N[C@@H](CCCNC(=N)N)C(=O)N[C@@H](CO)C(=O)N[C@H]1CCC(=O)NCCCC[C@@H](C(=O)N[C@@H](CCCCN)C(=O)N[C@@H](CCC(N)=O)C(=O)N[C@@H](CC(N)=O)C(N)=O)NC(=O)[C@H](CCCCN)NC(=O)[C@H](C(C)C)NC(=O)[C@H](CC(C)C)NC1=O) [Compound 136] | – | – | – | – | – | – | – | – | – | – | 0.30 | 0.14 | did not seem to stabilize | 1437.80 deg cm^2 dmol^−1 residue^−1 | −5084.93 deg cm^2 dmol^−1 residue^−1 | −1568.07 deg cm^2 dmol^−1 residue^−1
B1 | – | – | – | – | – | – | – | – | – | – | 0.46 | 0.18 | – | 1839.66 deg cm^2 dmol^−1 residue^−1 | −7553.76 deg cm^2 dmol^−1 residue^−1 | −4046.60 deg cm^2 dmol^−1 residue^−1
